Variants at the floor of the assay were thinned out.
Experiments:
[1] = tested on: biotinyl-Val-oxazolone; experiment: self-aminoacylation, catalytic enhancement (BVO) (fold over background); higher = more active; k-Seq, kA / k0A0; sequences stand for … in GGGAAUGGAUCCACAUCUACGAAUUC…UUCACUGCAGACUUGACGAAGCUG
Summary of the method: (§1)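 Mutagenized RNA pools with a 21-nt variable region (0.43 μM) were reacted with each biotinyl-aminoacyl-oxazolone at 2–1250 μM for 90 minutes at room temperature, in 50 μL HEPES/NaCl/KCl/MgCl2/CaCl2 buffer containing 5% acetonitrile at pH 6.9–7.0. RNA captured on streptavidin was quantified by triplicate qPCR and by Illumina sequencing. The fraction reacted for each sequence was fit to a pseudo-first-order model with bootstrapping, and catalytic enhancement is the median kA divided by the uncatalyzed rate, taken as the low-activity peak of a bimodal Gaussian fit.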

[2] = tested on: biotinyl-Leu-oxazolone; experiment: self-aminoacylation, catalytic enhancement (BLO) (fold over background); higher = more active; k-Seq, kA / k0A0; sequences stand for … in GGGAAUGGAUCCACAUCUACGAAUUC…UUCACUGCAGACUUGACGAAGCUG
Summary of the method: as §1

[3] = tested on: biotinyl-Met-oxazolone; experiment: self-aminoacylation, catalytic enhancement (BMO) (fold over background); higher = more active; k-Seq, kA / k0A0; sequences stand for … in GGGAAUGGAUCCACAUCUACGAAUUC…UUCACUGCAGACUUGACGAAGCUG
Summary of the method: as §1

[4] = tested on: biotinyl-Trp-oxazolone; experiment: self-aminoacylation, catalytic enhancement (BWO) (fold over background); higher = more active; k-Seq, kA / k0A0; sequences stand for … in GGGAAUGGAUCCACAUCUACGAAUUC…UUCACUGCAGACUUGACGAAGCUG
Summary of the method: as §1

[5] = tested on: biotinyl-Ile-oxazolone; experiment: self-aminoacylation, catalytic enhancement (BIO) (fold over background); higher = more active; k-Seq, kA / k0A0; sequences stand for … in GGGAAUGGAUCCACAUCUACGAAUUC…UUCACUGCAGACUUGACGAAGCUG
Summary of the method: as §1

[6] = tested on: biotinyl-Phe-oxazolone; experiment: self-aminoacylation, catalytic enhancement (BFO) (fold over background); higher = more active; k-Seq, kA / k0A0; sequences stand for … in GGGAAUGGAUCCACAUCUACGAAUUC…UUCACUGCAGACUUGACGAAGCUG
Summary of the method: as §1

Row | Sequence | self-aminoacylation [1] | self-aminoacylation [2] | self-aminoacylation [3] | self-aminoacylation [4] | self-aminoacylation [5] | self-aminoacylation [6]
1 | GUUACCCUGGUCCUCGAGUGA [Fam2.1 aminoacylation ribozyme variant] | 4.16 | 5.97 | 6.3 | 6.45 | 3.36 | 42.7
2 | CUAUCUCAAACAAUCGGUCUG [Fam1A.1 aminoacylation ribozyme variant] | 0.781 | 0.628 | 0.856 | 1.35 | 0.789 | 1.87
3 | CUUACCCUGGUAAUCGAGUGA [Fam2.1 aminoacylation ribozyme variant] | 3.18 | 7.47 | 6.18 | 8.08 | 3.22 | 24.3
4 | CUACUUCAAACAAACGGUCAG [Fam1A.1 aminoacylation ribozyme variant] | 0.682 | 0.581 | 0.6 | 0.787 | 0.73 | 0.883
5 | AUUCAUCUAGUUCAUCGGGUG [Fam2.2 aminoacylation ribozyme variant] | 2.21 | 3.27 | 2.83 | 3.1 | 2.13 | 12.6
6 | AUUCACCUUGGUCAUCGGGUU [Fam2.2 aminoacylation ribozyme variant] | 2.08 | 2.38 | 1.84 | 2.14 | 1.67 | 8.05
7 | AUUCACCUGGGUCUUCGGGUG [Fam2.2 aminoacylation ribozyme variant] | 5.01 | 7.31 | 5.53 | 5.25 | 4.14 | 38.6
8 | CCACAGUUAAAGCAAUCGGUC [Fam1B.1 aminoacylation ribozyme variant] | 0.98 | 0.963 | 0.836 | 0.869 | 0.832 | 0.915
9 | CAGUUUGCUAAUAGUGGCAAG [Fam3.1 aminoacylation ribozyme variant] | 0.882 | 0.854 | 1.04 | 0.985 | 0.854 | 0.616
10 | CUACUUAAAACAAUCAGUCUG [Fam1A.1 aminoacylation ribozyme variant] | 0.915 | 0.715 | 0.723 | 0.512 | 0.877 | 0.689
11 | AUUCCCCCGGUCAUCGAGUGA [Fam2.1 aminoacylation ribozyme variant] | 4.37 | 8.86 | 8.57 | 10.7 | 4.4 | 59.9
12 | AUUCACCUAGGUCAUCGACUG [Fam2.2 aminoacylation ribozyme variant] | 0.6 | 0.553 | 0.561 | 0.318 | 0.564 | 0.459
13 | CCUCACUUCAAGCAAUCAGUC [Fam1B.1 aminoacylation ribozyme variant] | 0.921 | 1.01 | 0.83 | 6.56 | 0.781 | 21.2
14 | ACUACCCUGGUCAUCGAGUGG [Fam2.1 aminoacylation ribozyme variant] | 8.27 | 22.5 | 20.8 | 20.2 | 7 | 110
15 | AAUUUUGCUAAUAGCCGCAAG [Fam3.1 aminoacylation ribozyme variant] | 1.44 | 1.49 | 1.33 | 1.31 | 1.74 | 1.7
16 | UUUACCCUGGUCCUCGAGUGA [Fam2.1 aminoacylation ribozyme variant] | 2.58 | 3.67 | 4.26 | 4.06 | 1.96 | 17.8
17 | AUUCACCUAUGUCAUCUGGUG [Fam2.2 aminoacylation ribozyme variant] | 1.62 | 2.51 | 2.04 | 2.01 | 1.79 | 1.9
18 | AUCCAGCUAGGUCAUCGGGUG [Fam2.2 aminoacylation ribozyme variant] | 6.15 | 6.74 | 5.63 | 7.36 | 4.76 | 47.5
19 | CCUCACUUCAAGCAAUCGUUC [Fam1B.1 aminoacylation ribozyme variant] | 0.637 | 0.604 | 0.473 | 0.754 | 0.664 | 1.29
20 | UUUACCCUGGUCAUCGAUUGA [Fam2.1 aminoacylation ribozyme variant] | 1.13 | 1.08 | 0.837 | 1.09 | 1.06 | 0.947
21 | CCAUACUUCAAGCAAUCAGUC [Fam1B.1 aminoacylation ribozyme variant] | 0.81 | 0.804 | 0.659 | 2.64 | 0.884 | 7.22
22 | AUUACCCUUGUCUUCGAGUGA [Fam2.1 aminoacylation ribozyme variant] | 2.73 | 4.49 | 4.46 | 6.14 | 2.64 | 18.9
23 | CCACGCUUCAAGCAAUCGGUA [Fam1B.1 aminoacylation ribozyme variant] | 1.14 | 0.943 | 0.873 | 1.13 | 0.724 | 1.37
24 | AUUCAGCUAGGUCAUCGGCUG [Fam2.2 aminoacylation ribozyme variant] | 1.86 | 1.52 | 1.55 | 2.02 | 1.63 | 11.6
25 | GUAACCCUGGUCAUCGAGUGA [Fam2.1 aminoacylation ribozyme variant] | 6.13 | 15.6 | 15.2 | 15.1 | 7.01 | 75.7
26 | AUGCACCUAGGUCAUGGGGUG [Fam2.2 aminoacylation ribozyme variant] | 3.42 | 4.53 | 4.33 | 5.66 | 3.85 | 31.3

Row | Sequence | self-aminoacylation [1] | self-aminoacylation [2] | self-aminoacylation [3] | self-aminoacylation [4] | self-aminoacylation [5] | self-aminoacylation [6]
27 | GCACACUUCAAGCAAUCUGUC [Fam1B.1 aminoacylation ribozyme variant] | 0.867 | 0.708 | 0.605 | 0.902 | 0.87 | 1.22
28 | AUUCACAUAGGUCCUCGGGUG [Fam2.2 aminoacylation ribozyme variant] | 4.71 | 9.43 | 7.55 | 7.63 | 4.33 | 51.3
29 | AUUCACCUAUGUCAUCAGGUG [Fam2.2 aminoacylation ribozyme variant] | 1.64 | 2.75 | 2.39 | 2.33 | 1.72 | 8.58
30 | AUUCACGUAGGUCGUCGGGUG [Fam2.2 aminoacylation ribozyme variant] | 3.81 | 2.35 | 2.48 | 2.44 | 2.61 | 9.34
31 | AUUCAACUAGAUCAUCGGGUG [Fam2.2 aminoacylation ribozyme variant] | 1.77 | 2.53 | 2.44 | 2.93 | 1.82 | 9.72
32 | AUUACCUGGGUCAUCGAGUGA [Fam2.1 aminoacylation ribozyme variant] | 3.05 | 4.74 | 5.07 | 5.91 | 2.83 | 5.6
33 | CUACAUCAAACAAUCGGUCAG [Fam1A.1 aminoacylation ribozyme variant] | 0.714 | 0.56 | 0.759 | 0.586 | 0.629 | 0.912
34 | CUACUUCAAUCAAUCGUUCUG [Fam1A.1 aminoacylation ribozyme variant] | 0.596 | 0.472 | 0.379 | 0.428 | 0.491 | 0.629
35 | AUUACCCUCGUCAUCCAGUGA [Fam2.1 aminoacylation ribozyme variant] | 1.29 | 1.94 | 1.51 | 1.02 | 1.44 | 1.18
36 | AUUACCCUGGUAAUCGCGUGA [Fam2.1 aminoacylation ribozyme variant] | 3.66 | 8.44 | 7.29 | 7.81 | 3.14 | 58.9
37 | AAGUUUGCUAUAAGUCGCAAG [Fam3.1 aminoacylation ribozyme variant] | 0.9 | 0.726 | 0.995 | 0.892 | 1.12 | 1
38 | CUACUUCAAACUAACGGUCUG [Fam1A.1 aminoacylation ribozyme variant] | 0.75 | 0.796 | 0.787 | 0.665 | 0.778 | 0.924
39 | CUACUUCAAACGAUCGUUCUG [Fam1A.1 aminoacylation ribozyme variant] | 0.632 | 0.423 | 0.442 | 0.447 | 0.493 | 0.639
40 | AGUCACCUAGGUCAUCGGGAG [Fam2.2 aminoacylation ribozyme variant] | 1.76 | 1.74 | 1.93 | 2.56 | 1.65 | 1.38
41 | AUUGACUUAGGUCAUCGGGUG [Fam2.2 aminoacylation ribozyme variant] | 3.95 | 6.27 | 5.25 | 5.77 | 3.47 | 39.1
42 | CUACUUCAAGCAAUCCGUCUG [Fam1A.1 aminoacylation ribozyme variant] | 1.17 | 0.941 | 0.833 | 1.25 | 1 | 1.86
43 | CCACACUUCACGCAGUCGGUC [Fam1B.1 aminoacylation ribozyme variant] | 1.47 | 1.31 | 0.94 | 0.719 | 1.13 | 0.859
44 | CUUACCCUGGUCAGCGAGUGA [Fam2.1 aminoacylation ribozyme variant] | 3.69 | 6.11 | 4.38 | 7.19 | 3.42 | 29.2
45 | CCACACUUCAUGCAAUCGGUC [Fam1B.1 aminoacylation ribozyme variant] | 0.9 | 0.693 | 0.687 | 0.689 | 0.819 | 0.866
46 | CCACAAUUCAAGCGAUCGGUC [Fam1B.1 aminoacylation ribozyme variant] | 1.47 | 1.56 | 1.28 | 1.12 | 1.37 | 1.53
47 | AUUACCUUGGCCAUCGAGUGA [Fam2.1 aminoacylation ribozyme variant] | 1.62 | 2.5 | 2.38 | 3.26 | 1.95 | 2.01
48 | ACUCACCUAGGUCACCGGGUG [Fam2.2 aminoacylation ribozyme variant] | 5.05 | 7.47 | 3.64 | 7.92 | 4.71 | 34.2
49 | ACACACUUGAAGCAAUCGGUC [Fam1B.1 aminoacylation ribozyme variant] | 1.23 | 0.919 | 0.88 | 1.17 | 1 | 1.25
50 | AUAACCCUGGUCAUCGAGUUA [Fam2.1 aminoacylation ribozyme variant] | 1.34 | 2.86 | 2.5 | 1.12 | 1.7 | 4.86
51 | CGGCUUCAAACAAUCGGUCUG [Fam1A.1 aminoacylation ribozyme variant] | 1.49 | 2.46 | 1.62 | 45.1 | 1.41 | 106
